Residue numbers refer to the chain shown, from its start.
T1: CRH (CT-Biotin) (human and mouse, biotin on the added C-terminal K (-K-Biotin))
T1 construct: also called Peptide 4 (CRH-Biotin); C-terminally biotinylated corticotropin-releasing hormone
T1 peptide: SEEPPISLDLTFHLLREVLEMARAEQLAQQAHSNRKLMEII

T2: corticotropin-releasing hormone (CRH) peptide (human and mouse, not fully specified)
T2 peptide: T1 peptide

T3: CRH (NT-Biotin) (human and mouse, not fully specified; biotin at the N-terminus)
T3 construct: also called Biotin-CRH; N-terminally biotinylated corticotropin-releasing hormone
T3 peptide: T1 peptide

T4: corticotropin-releasing hormone (CRH) peptide (human and mouse (same sequence), not fully specified)
T4 peptide: T1 peptide

B1: PR301612 (antibody, human IgG1, kappa, V domains shown)
VH: EVKLEESGGGLVQPGGSIKLSCVASGFTFSGAWMAWVRQSPEKGLEWVAEIKNKANNHATFYAESVKGRFIISRDDSKSSVYLQMNSLRAEDTGTYYCTLPDVWGTGTTVTVSS
VL: QIVLTQSPAIMSASPGERVTISCSASSSVSNMYWYLQKPGSSPKPWIYRTSNLASGVPARFSGSGSGTSYSLTISSMEAEDVATYYCQQYHSFPRTFGGGTKLEIKR
notes: Mouse variable domains, expressed recombinantly with human IgG1 wildtype Fc; also called Series 4 mAb
B2: PR004289 (antibody, human IgG1, kappa, V domains shown)
VH: EVQLVESGGVLVQPGGSLRLSCAASGFIFSSYWMTWVRQAPGKGLEWVANIKQDGSEKYYVDSVKGRFTISRDNAKNSLFLQMNSLRAEDTAVYYCARTLIFDYWGQGTLVTVSS
VL: DIVMTQSPLSLPVTPGEPASISCRSSQSLLHSTGYNSLEWYLQKPGQSPQLLIYLGSNRASGVPDRFSGSGSGTDFTLKISRVEAEDVGIYYCMQTLQTPITFGQGTRLEIKR
notes: Expressed recombinantly with human IgG1 wildtype Fc; also called Hybridoma Clone 16g2; Series 1 mAb
B3: PR302309-21 (antibody, human IgG1, kappa, V domains shown)
VH: QIQLVQSGAEVKKPGASVKVSCKASGYTFTNYGMNWVRQAPGQRLEWMGWINTYTGEPIYTDDFKGRVTITLDTSASTAYMELSSLRSEDTAVYYCSRSTMITTGGVFAYWGQGTLVTVSS
VL: DVVMTQTPLSSPVTLGQPASISCRSSQTIVHSDGNTYLEWYQQRPGQPPRLLIYKVSNRFSGVPDRFSGSGAGTDFTLKISRVEAEDLGVYYCFQGSHVPWTFGGGTKVEIKR
B4: PR302309-13 (antibody, human IgG1, kappa, V domains shown)
VH: QVQLVQSGSELKKPGASVKVSCKASGYTFTNYGMNWVRQAPGQGLEWMGWINTYTGEPIYTDDFKGRFVFSLDTSVSTAYLQISSLKAEDTAVYYCARSTMITTGGVFAYWGQGTLVTVSS
VL: DVLMAQTPLSLPVSLGDQASISCRSSQTIVHSDGNTYLEWYLQKPGQSPKLLIYKVSNRFSGVPDRFSGSGSGTDFTLKISRVEAEDLGVYYCFQGSHVPWTFGGGTKLEIKR
B5: PR302309-17 (antibody, human IgG1, kappa, V domains shown)
VH: B4 VH
VL: B3 VL with T7S, S11L, P48S, A72S
B6: PR302309-19 (antibody, human IgG1, kappa, V domains shown)
VH: B3 VH
VL: B3 VL with T7S, S11L, P48S, A72S
B7: PR302309-20 (antibody, human IgG1, kappa, V domains shown)
VH: B3 VH
VL: B3 VL with S11L, P12S, L15P, Q42L, R44K, P48S, R50Q, A72S
B8: PR302309-16 (antibody, human IgG1, kappa, V domains shown)
VH: B3 VH
VL: B4 VL
B9: PR302309-15 (antibody, human IgG1, kappa, V domains shown)
VH: B3 VH with I2V, L72R, S97A
VL: B4 VL
B10: PR302309-18 (antibody, human IgG1, kappa, V domains shown)
VH: B3 VH with I2V, L72R, S97A
VL: B3 VL with T7S, S11L, P48S, A72S
B11: PR302309-14 (antibody, human IgG1, kappa, V domains shown)
VH: B4 VH with V2I, A97S
VL: B4 VL

Target: T1, CRH (CT-Biotin)
Assay: ELISA, C-terminally biotinylated CRH on streptavidin-coated plate
Description: (§1) Streptavidin (Thermo, Cat: 21125) was diluted in PBS to a concentration of 2 μg/ml. 100 μl of diluted streptavidin was added per well to ELISA microplates, and the plates were incubated overnight at 4° C. […] 100 μL of 3,3′,5,5′-tetramethylbenzidine (TMB) substrate (Biopanda, Cat: TMB-S-003) was added, and the plates were incubated at room temperature for 15 minutes. 100 μL of ELISA stopping solution (Solarbio, Cat #: C1058) was added to terminate the reaction, and the optical density at 450 nm (OD450 nm) was determined by an ELISA plate reader (Molecular Devices, Spectra max 384 plus).

Binder	EC50 [nM]
B1	0.033
B2	0.023

Target: T2, corticotropin-releasing hormone (CRH) …
Assay: cell-based or functional assay

Binder	hCRHR1 Reporter IC50 [nM]
B1	18.1
B2	3.13

Target: T3, CRH (NT-Biotin)
Assay: ELISA, N-terminally biotinylated CRH on streptavidin-coated plate
Description: as §1

Binder	EC50 [nM]
B2	0.023

Target: T4, corticotropin-releasing hormone (CRH) …
Assay: cell-based or functional assay

Binder	hCRHR1 Luciferase Reporter Assay IC50 [nM]
B3	8.44
B4	7.23
B5	6.69
B6	4.83
B7	3.07
B8	5.47
B9	10.5
B10	1.73
B11	1.68

Reference: patent publication US20260042834A1 (HBM ALPHA THERAPEUTICS, published 2026)
